{
  "source": "paper PMC12440825",
  "about": "“SNARE disassembly requires Sec18/NSF side loading” (Nature Structural & Molecular Biology, 2025)",
  "binders": {"B1": {"name": "Sec18 (recombinant, complete coding sequence) (enzyme, S. cerevisiae, UniProt P18759 1-758, looked up)", "chain": "MFKIPGFGKAAANHTPPDMTNMDTRTRHLKVSNCPNNSYALANVAAVSPNDFPNNIYIIIDNLFVFTTRHSNDIPPGTIGFNGNQRTWGGWSLNQDVQAKAFDLFKYSGKQSYLGSIDIDISFRARGKAVSTVFDQDELAKQFVRCYESQIFSPTQYLIMEFQGHFFDLKIRNVQAIDLGDIEPTSAVATGIETKGILTKQTQINFFKGRDGLVNLKSSNSLRPRSNAVIRPDFKFEDLGVGGLDKEFTKIFRRAFASRIFPPSVIEKLGISHVKGLLLYGPPGTGKTLIARKIGTMLNAKEPKIVNGPEILSKYVGSSEENIRNLFKDAEAEYRAKGEESSLHIIIFDELDSVFKQRGSRGDGTGVGDNVVNQLLAKMDGVDQLNNILVIGMTNRKDLIDSALLRPGRFEVQVEIHLPDEKGRLQIFDIQTKKMRENNMMSDDVNLAELAALTKNFSGAEIEGLVKSASSFAINKTVNIGKGATKLNTKDIAKLKVTREDFLNALNDVTPAFGISEEDLKTCVEGGMMLYSERVNSILKNGARYVRQVRESDKSRLVSLLIHGPAGSGKTALAAEIALKSGFPFIRLISPNELSGMSESAKIAYIDNTFRDAYKSPLNILVIDSLETLVDWVPIGPRFSNNILQMLKVALKRKPPQDRRLLIMTTTSAYSVLQQMDILSCFDNEIAVPNMTNLDELNNVMIESNFLDDAGRVKVINELSRSCPNFNVGIKKTLTNIETARHDEDPVNELVELMTQSA", "notes": "Hexamer in the y20S complex; heptamer or split hexamer with ATP and Mg2+; No TEV cleavage is described for the preparation used for y20S; also called wild-type Sec18; substrate-free Sec18; source: E. coli BL21(DE3), purified (Ni-NTA, SEC)"}, "B2": {"name": "Sec9 (401–651) (domain or fragment, S. cerevisiae, UniProt P40357 401-651, looked up)", "chain": "QRGYKTFEEIQKEEEARQQQEEDEAVDEIKQEIKFTKQSSVASTRNTLKMAQDAERAGMNTLGMLGHQSEQLNNVEGNLDLMKVQNKVADEKVAELKKLNRSILAVHVSNPFNSKRRRREREEQLKNRKIEEKLMREQTSQQLSQSTQRIEGAMNANNNISEVRERYQRKNVLEKAKRYQFENDEEDDEMELEIDRNLDQIQQVSNRLKKMALTTGKELDSQQKRLNNIEESTDDLDINLHMNTNRLAGIR", "notes": "Sec9, S. cerevisiae SNAP25-like SNARE, residues 401-651; source: E. coli BL21(DE3), purified (Ni-NTA, TEV, MonoS, SEC); not shown: His6, N-terminal, cleaved"}, "B3": {"name": "Sso1 (1–265) (domain or fragment, S. cerevisiae, UniProt P32867 1-265, looked up)", "chain": "MSYNNPYQLETPFEESYELDEGSSAIGAEGHDFVGFMNKISQINRDLDKYDHTINQVDSLHKRLLTEVNEEQASHLRHSLDNFVAQATDLQFKLKNEIKSAQRDGIHDTNKQAQAENSRQRFLKLIQDYRIVDSNYKEENKEQAKRQYMIIQPEATEDEVEAAISDVGGQQIFSQALLNANRRGEAKTALAEVQARHQELLKLEKSMAELTQLFNDMEELVIEQQENVDVIDKNVEDAQLDVEQGVGHTDKAVKSARKARKNKIR", "notes": "Sso1, S. cerevisiae syntaxin-like SNARE, residues 1-265 (Habc domain, linker, SNARE domain; no transmembrane domain); also called SNARE Sso1; source: E. coli BL21(DE3), purified (Ni-NTA, TEV, ion exchange, SEC); not shown: His6, N-terminal, cleaved"}},
  "key": {"[1]": {"target": "B1", "test": "cryo-EM structure; y20S complex in the hydrolyzing condition: as nonhydrolyzing, excess MgCl2 added on the grid, 7 s before vitrification; classes 1-4", "settings": "both partners purified"}, "[2]": {"target": "T1, yeast exocytic SNARE complex Sso1–Sec9–Snc1 (S. cerevisiae, UniProt P32867 1-265; P40357 401-651; P31109 1-93)", "T1 construct": "Sso1, S. cerevisiae, residues 1-265; as m4; Sec9, S. cerevisiae, residues 401-651; as m5; Snc1, S. cerevisiae, residues 1-93; as m6; also called ySNARE complex; yeast exocytic complex; source: E. coli BL21(DE3), each SNARE purified, mixed 1:1:1 in 6 M GdHCl, dialysed, purified (MonoQ); not shown: His6, N-terminal, cleaved; copies: 1 + 1 + 1", "T1 sequence (looked up) 1": "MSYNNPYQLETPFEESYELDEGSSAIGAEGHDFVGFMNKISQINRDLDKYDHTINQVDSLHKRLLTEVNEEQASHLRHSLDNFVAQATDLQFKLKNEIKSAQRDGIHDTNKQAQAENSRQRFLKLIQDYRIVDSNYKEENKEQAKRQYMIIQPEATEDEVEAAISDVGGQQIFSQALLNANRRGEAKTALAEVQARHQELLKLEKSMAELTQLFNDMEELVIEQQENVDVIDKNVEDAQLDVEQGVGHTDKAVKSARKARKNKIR", "T1 sequence (looked up) 2": "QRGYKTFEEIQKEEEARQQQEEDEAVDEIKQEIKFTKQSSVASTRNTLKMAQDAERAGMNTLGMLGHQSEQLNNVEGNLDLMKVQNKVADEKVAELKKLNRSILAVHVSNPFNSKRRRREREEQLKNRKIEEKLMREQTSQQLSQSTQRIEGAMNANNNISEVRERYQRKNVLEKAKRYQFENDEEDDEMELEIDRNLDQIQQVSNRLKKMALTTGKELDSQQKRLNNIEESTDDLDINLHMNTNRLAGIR", "T1 sequence (looked up) 3": "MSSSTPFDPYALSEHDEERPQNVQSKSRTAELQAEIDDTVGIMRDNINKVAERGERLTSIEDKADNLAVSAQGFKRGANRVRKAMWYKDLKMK", "test": "cryo-EM structure; y20S complex in the nonhydrolyzing condition: preformed ySNARE complex + Sec17 + EDTA-quenched Sec18 (Sec18:SNARE:Sec17 1:1.67:10) in 50 mM Tris, 150 mM NaCl, 1 mM TCEP, 1 mM ATP, 1 mM EDTA pH 8, Superose 6; eight 3D classes", "settings": "both partners purified"}, "[3]": {"target": "the molecule itself", "test": "cryo-EM structure; y20S complex in the hydrolyzing condition: as nonhydrolyzing, excess MgCl2 added on the grid, 7 s before vitrification; classes 1-4"}, "[4]": {"target": "the molecule itself", "test": "cryo-EM structure; y20S complex in the nonhydrolyzing condition: preformed ySNARE complex + Sec17 + EDTA-quenched Sec18 (Sec18:SNARE:Sec17 1:1.67:10) in 50 mM Tris, 150 mM NaCl, 1 mM TCEP, 1 mM ATP, 1 mM EDTA pH 8, Superose 6; eight 3D classes"}, "[5]": {"target": "B3", "test": "cryo-EM structure; y20S complex in the nonhydrolyzing condition: preformed ySNARE complex + Sec17 + EDTA-quenched Sec18 (Sec18:SNARE:Sec17 1:1.67:10) in 50 mM Tris, 150 mM NaCl, 1 mM TCEP, 1 mM ATP, 1 mM EDTA pH 8, Superose 6; eight 3D classes", "settings": "both partners purified"}, "[6]": {"target": "B2", "test": "cryo-EM structure; y20S complex in the nonhydrolyzing condition: preformed ySNARE complex + Sec17 + EDTA-quenched Sec18 (Sec18:SNARE:Sec17 1:1.67:10) in 50 mM Tris, 150 mM NaCl, 1 mM TCEP, 1 mM ATP, 1 mM EDTA pH 8, Superose 6; eight 3D classes", "settings": "both partners purified"}, "[7]": {"target": "the molecule itself", "test": "cryo-EM structure; substrate-free NSF in the hydrolyzing condition: buffer with ATP and 1 mM MgCl2 instead of EDTA, final SEC; four classes, 3DVA of class 3"}},
  "data": [
    {"binder": "Sec17 (natural protein, S. cerevisiae, UniProt P32602 1-292, looked up, also called Sec17/α-SNAP; adaptor Sec17; source: E. coli BL21(DE3), purified (Ni-NTA, TEV, MonoQ, SEC); not shown: His10, N-terminal, cleaved) MSDPVELLKRAEKKGVPSSGFMKLFSGSDSYKFEEAADLCVQAATIYRLRKELNLAGDSFLKAADYQKKAGNEDEAGNTYVEAYKCFKSGGNSVNAVDSLENAIQIFTHRGQFRRGANFKFELGEILENDLHDYAKAIDCYELAGEWYAQDQSVALSNKCFIKCADLKALDGQYIEASDIYSKLIKSSMGNRLSQWSLKDYFLKKGLCQLAATDAVAAARTLQEGQSEDPNFADSRESNFLKSLIDAVNEGDSEQLSEHCKEFDNFMRLDKWKITILNKIKESIQQQEDDLL", "values": [
      {"measurement": "binding result", "setting": "[1]", "result": "binds"},
      {"measurement": "binding result", "setting": "[2]", "result": "binds"}
    ]},
    {"binder": "B1", "values": [
      {"measurement": "stoichiometry N", "setting": "[3]", "result": 7},
      {"measurement": "stoichiometry N", "setting": "[4]", "result": 6}
    ]},
    {"binder": "B2", "values": [
      {"measurement": "binding result", "setting": "[5]", "result": "binds"}
    ]},
    {"binder": "Snc1 (1–93) (domain or fragment, S. cerevisiae, UniProt P31109 1-93, looked up, Snc1, S. cerevisiae synaptobrevin-like SNARE, residues 1-93; source: E. coli BL21(DE3), purified (Ni-NTA, TEV, ion exchange, SEC); not shown: His6, N-terminal, cleaved) MSSSTPFDPYALSEHDEERPQNVQSKSRTAELQAEIDDTVGIMRDNINKVAERGERLTSIEDKADNLAVSAQGFKRGANRVRKAMWYKDLKMK", "values": [
      {"measurement": "binding result", "setting": "[5]", "result": "binds"},
      {"measurement": "binding result", "setting": "[6]", "result": "binds"}
    ]},
    {"binder": "B3", "values": [
      {"measurement": "binding result", "setting": "[1]", "result": "binds"}
    ]},
    {"binder": "NSF (N-ethylmaleimide-sensitive factor) (enzyme, C. griseus, Heptamer (class 1) or hexamer (classes 2-4) with ATP and Mg2+; also called substrate-free NSF; high-purity NSF) MAGRSMQAARCPTDELSLSNCAVVSEKDYQSGQHVIVRTSPNHKYIFTLRTHPSVVPGSVAFSLPQRKWAGLSIGQEIEVALYSFDKAKQCIGTMTIEIDFLQKKNIDSNPYDTDKMAAEFIQQFNNQAFSVGQQLVFSFNDKLFGLLVKDIEAMDPSILKGEPASGKRQKIEVGLVVGNSQVAFEKAENSSLNLIGKAKTKENRQSIINPDWNFEKMGIGGLDKEFSDIFRRAFASRVFPPEIVEQMGCKHVKGILLYGPPGCGKTLLARQIGKMLNAREPKVVNGPEILNKYVGESEANIRKLFADAEEEQRRLGANSGLHIIIFDEIDAICKQRGSMAGSTGVHDTVVNQLLSKIDGVEQLNNILVIGMTNRPDLIDEALLRPGRLEVKMEIGLPDEKGRLQILHIHTARMRGHQLLSADVDIKELAVETKNFSGAELEGLVRAAQSTAMNRHIKASTKVEVDMEKAESLQVTRGDFLASLENDIKPAFGTNQEDYASYIMNGIIKWGDPVTRVLDDGELLVQQTKNSDRTPLVSVLLEGPPHSGKTALAAKIAEESNFPFIKICSPDKMIGFSETAKCQAMKKIFDDAYKSQLSCVVVDDIERLLDYVPIGPRFSNLVLQALLVLLKKAPPQGRKLLIIGTTSRKDVLQEMEMLNAFSTTIHVPNIATGEQLLEALELLGNFKDKERTTIAQQVKGKKVWIGIKKLLMLIEMSLQMDPEYRVRKFLALLREEGASPLDFD", "values": [
      {"measurement": "stoichiometry N", "setting": "[7]", "result": 7}
    ]}
  ]
}
